Broadly, the Kd is the constant that tells how readily two partners part at equilibrium. Lower therefore signals a tighter complex.

For the experiment, the target named is Influenza H1 (A/Brisbane/59/2007) HA Clamp (Influenza A virus …, UniProt D5F1Q8, stabilised). Description: ELISA. As to conditions: both partners purified.

B1: recombinant bat antibody C05 with human signal peptide (bat C05Hsp) (antibody, V domains shown)
VH: QVQLQESGGGLVQPGESLRLSCVGSGSSFGESTLSYYAVSWVRQAPGKGLEWLSIINAGGGDIDYADSVEGRFTISRDNSKETLYLQMTNLRVEDTGVYYCAKHMSMQQVVSAGWERADLVGDAFDVWGQGTMVTVSS
VL: DIQLTQSPSSLSASVGDRVTLTCQASQDIRKFLNWYQQKPGKGPKLLIYDASNLQRGVPSRFSGGGSGTDFTLIISSLQPEDVGTYYCQQYDGLPFTFGGGTKVVIK
notes: also called bC05Hsp; ReBA
B1: the Kd worked out at 250 pM.

B2: recombinant bat antibody C05 with bat signal peptide (bC05Bsp) (antibody, V domains shown)
VH: B1 VH
VL: B1 VL
notes: also called ReBA
For the molecule B2, binding was characterised by a dissociation constant (Kd) of 390 pM.

The values are drawn from publication PMC12995615 (Frontiers in Immunology, 2026).
